Assay results reported in patent publication US7074888B1, “Mimotopes and anti-mimotopes of human platelet glycoprotein Ib/IX” (The Research Foundation of State University of New York, priority 1995, dated 2006).
Ends that are not written are not given here.

B1: C34 Clone SEQ ID NO:1 (peptide)
peptide: AWNWRYREYV
B2: C34 Clone SEQ ID NO:10 (peptide)
peptide: MNWKHWRARH
B3: C34 Clone SEQ ID NO:11 (peptide)
peptide: FKWREWRGKL
B4: C34 Clone SEQ ID NO:12 (peptide)
peptide: PDRQVRLWVR
B5: C34 Clone SEQ ID NO:13 (peptide)
peptide: RVLRHWHPRT
B6: C34 Clone SEQ ID NO:14 (peptide)
peptide: GRRVWMLNHG
B7: C34 Clone SEQ ID NO:15 (peptide)
peptide: KKGRHHVTRV
B8: C34 Clone SEQ ID NO:16 (peptide)
peptide: GGVCKCWQCL
B9: C34 Clone SEQ ID NO:17 (peptide)
peptide: FSHSYGSAIR
B10: C34 Clone SEQ ID NO:18 (peptide)
peptide: MHGHRRPGLA
B11: C34 Clone SEQ ID NO:19 (peptide)
peptide: MSKKPHLGLR
B12: C34 Clone SEQ ID NO:2 (peptide)
peptide: KWNWRNKKYV
B13: C34 Clone SEQ ID NO:20 (peptide)
peptide: TMWVELYSLK
B14: C34 Clone SEQ ID NO:21 (peptide)
peptide: FVDPGRAGRG
B15: C34 Clone SEQ ID NO:66 (peptide)
peptide: KRAWWKQKWV
B16: C34 Clone SEQ ID NO:3 (peptide)
peptide: LSTWRYFEYV
B17: C34 Clone SEQ ID NO:4 (peptide)
peptide: YLGWRYSEYV
B18: C34 Clone SEQ ID NO:5 (peptide)
peptide: TQMWRAREYL
B19: C34 Clone SEQ ID NO:6 (peptide)
peptide: WRQREYWDPV
B20: C34 Clone SEQ ID NO:7 (peptide)
peptide: EGSWRYRKGG
B21: C34 Clone SEQ ID NO:8 (peptide)
peptide: GYHWWRNWEY
B22: C34 Clone SEQ ID NO:9 (peptide)
peptide: KGFLWRARNW
B23: anti-mimotope clone SEQ ID NO:94 (peptide)
peptide: RHVAWWRQGV
B24: anti-mimotope clone SEQ ID NO:95 (peptide)
peptide: AKHRWWRRPV
B25: anti-mimotope clone SEQ ID NO:96 (peptide)
peptide: KHFMRHRHGV
B26: anti-mimotope clone SEQ ID NO:97 (peptide)
peptide: AGLNHWWKHK
B27: anti-mimotope clone SEQ ID NO:98 (peptide)
peptide: RRSTWHWWHA
B28: anti-mimotope clone SEQ ID NO:99 (peptide)
peptide: VAKWRHWNRQ
B29: anti-mimotope clone SEQ ID NO:158 (peptide)
peptide: KKWGQHRQRS
B30: anti-mimotope clone SEQ ID NO:159 (peptide)
peptide: WRWMHWMPHA
B31: anti-mimotope clone SEQ ID NO:160 (peptide)
peptide: WHWLARHRTV
B32: anti-mimotope clone SEQ ID NO:161 (peptide)
peptide: RHRHRGFQPR
B33: anti-mimotope clone SEQ ID NO:162 (peptide)
peptide: RGWRWHKYWQ
B34: anti-mimotope clone SEQ ID NO:163 (peptide)
peptide: KRHAWMKSRL
B35: anti-mimotope clone SEQ ID NO:164 (peptide)
peptide: LLLVGGSELT
B36: anti-mimotope clone SEQ ID NO:165 (peptide)
peptide: KKVWMFSYNE
B37: anti-mimotope clone SEQ ID NO:166 (peptide)
peptide: LSCRGCRAFV
B38: anti-mimotope clone SEQ ID NO:167 (peptide)
peptide: HEGCEAQDEL
B39: anti-mimotope clone SEQ ID NO:168 (peptide)
peptide: SVRHIWFHVK
B40: anti-mimotope clone SEQ ID NO:169 (peptide)
peptide: GTWDLWRKGS
B41: anti-mimotope clone SEQ ID NO:170 (peptide)
peptide: RWLWPRVHKT
B42: anti-mimotope clone SEQ ID NO:171 (peptide)
peptide: HSPFRHVQPR
B43: anti-mimotope clone SEQ ID NO:172 (peptide)
peptide: WVRGHHREVR

Legend:
[1] = tested on: formalin-fixed platelets; format: cell-based, human; settings: for inhibition of ristocetin-induced aggregation (extent, in words): 1 U/mL purified vWF, 0.9 mg/mL ristocetin
Experimental: (§1) Citrated human platelet-rich plasma (PRP) was prepared by standard methods (Miller et al. 1983). For study of C-34 neutralization by mimotope peptide, 350 μL of PRP containing 150,000 platelets/μL was incubated for 10 min at 22° C. with phosphate-buffered saline (PBS), 20 μg/mL C-34 mab, or 20 μg/mL C-34 that had previously been incubated for 30 min at 22° C. with varying concentrations of peptides. The PRP was then brought to 37° C. and stirred at 1200 rpm in a Chrono-Log lumi-aggregometer (Chrono-Log Corporation, Havertown, Pa.). Aggregation was initiated by the addition of 1 mg/mL ristocetin (Helena Laboratories, Beaumont, Tex.). For screening of bacteriophage clones displaying potential anti-mimotope peptides, 150 μl of PEG/NaCl precipitated phage was incubated with 250 μl of citrated PRP for one hour at 22° C., transferred to the aggregometer, following which ristocetin was added at a final concentration of 0.8 mg/ml.
Further studies were undertaken with chemically synthesized peptide having SEQ ID NO:94: […]. This decapeptide was able to inhibit ristocetin-induced aggregation fully, with an IC50 occurring between 200–400 μg/mL (FIG. 9). […] In order to approximate more closely the native structure, peptides with an (Arg→Lys) substitution at position 7 were then studied. […] Whereas the […] Finally, both the wild-type GPIb alpha 228–237 peptide (SEQ ID NO:108) containing Gly at residue 233 and the PT-vWD variant with Val replacing Gly at this position (SEQ ID NO:107) were synthesized. […] Lyophilized peptides were reconstituted in PBS, pH 6.0 and 150 μL of varying dilutions incubated for 2–4 hr at 22° C. with 250 μL of formalin-fixed platelets ([…]), prior to aggregometry in which the addition of 1 U/mL purified vWF was followed by the addition of 0.9 mg/mL ristocetin.

[2] = tested on: mab C-34; assay: Neutralization of mab C-34 inhibition of ristocetin-induced aggregation in citrated platelet-rich plasma by mimotope peptide; format: cell-based, human
Experimental: as §1
A peptide including the consensus sequence (SEQ ID NO: 38) was chemically synthesized (Genosys Biotechnologies, The Woodlands, Tex.). […] A modification of this peptide with a biotin attached to the amino-terminal alanine (N-hydroxysuccinimide hexanoic acid long chain spacer arm biotinylation) was also synthesized. One mg of the chemically synthesized biotinylated peptide was dissolved in one ml of water containing 20 μl of DMSO. […] Accordingly, approximately 10 μg of C-34 was incubated at 22° C. for 30 minutes with varying concentrations of test or control peptide, following which the mixture was added to PRP in a final volume of approximately 0.5 ml for an additional 10 minutes at 22° C. […] A similar pattern of C-34 antibody neutralization was observed when the non-biotinylated form of the peptide (having SEQ ID NO:38) was used, with half-maximal neutralization at approximately 3.0 μM.

[3] = tested on: platelets; assay: Effect of mimotope peptide by itself on platelet aggregation and on ADP-induced aggregation; format: cell-based, human
[4] = biological target: monoclonal antibody C-34; assay: clone count after phage biopanning on biotinylated C-34
[5] = biological target: T1, synthetic biotinylated peptide mimotope having SEQ ID NO:1 (not fully specified (N-terminus)); assay: phage biopanning on biotinylated mimotope peptide SEQ ID NO:1
T1 construct: chemically synthesized (Genosys); also called biotinylated mimotope peptide
T1 peptide: AWNWRYREYV
Experimental: For studies directed towards discovering a peptide binding the mimotope peptide (SEQ ID NO:1: […]), two rounds of biopanning against the original decapeptide library were performed, using 1 µg of biotinylated mimotope peptide in the first round and 0.01 µg in the second round. Resulting yields were 3 ×10^-6% and 2 ×10^-3%, respectively.

Molecule	Frequency [4]	binding result [5]	further results
SEQ ID NO:104: RHVAWWRQGV decapeptide with a (Gly→Val) substitution at position 9, corresponding to the mutation observed in PT-vWD (RHVAWWRQVV)			inhibition of ristocetin-induced aggregation ([1]; by 715 μg/mL peptide, formalin-fixed platelets): nearly full inhibition
AWNWRYREYV [SEQ ID NO:1]			neutralization of C-34 inhibition of ristocetin-induced aggregation ([2]; 0.14 μM peptide, 20 μg/ml mab C-34 (FIG. 3)): continued inhibition; neutralization of C-34 inhibition of ristocetin-induced aggregation ([2]; 0.27 μM peptide, 20 μg/ml mab C-34 (FIG. 4)): partial neutralization; neutralization of C-34 inhibition of ristocetin-induced aggregation ([2]; 0.55 μM peptide, 20 μg/ml mab C-34 (FIG. 5)): partial neutralization; neutralization of C-34 inhibition of ristocetin-induced aggregation ([2]; 1.1 μM peptide, 20 μg/ml mab C-34 (FIG. 6)): partial neutralization; neutralization of C-34 inhibition of ristocetin-induced aggregation ([2]; 2.3 μM peptide, 20 μg/ml mab C-34 (FIG. 7)): complete neutralization; influence on ADP-induced aggregation ([3]; non-specific effects): no influence; induction of platelet aggregation by the peptide by itself ([3]; peptide alone, PRP): did not induce platelet aggregation
YVWKQVVDVK [SEQ ID NO:107]			IC50 for inhibition of ristocetin-induced aggregation [1]: approximately 400 μg/mL; inhibition of ristocetin-induced aggregation (extent, in words) ([1]; formalin-fixed platelets): fully inhibiting
RHVAWWKQVV [SEQ ID NO:105]			inhibition of ristocetin-induced aggregation (extent, in words) ([1]; formalin-fixed platelets): retained potent inhibitory activity
WNWRYREYV [SEQ ID NO:38]			EC50 ([2]; 20 μg/mL C-34, citrated PRP, 1 mg/mL ristocetin, read-out: half-maximal neutralization of the C-34): ~3000 nM
SEQ ID NO:108: wild-type GPIb alpha 228–237 peptide containing Gly at residue 233 (YVWKQGVDVK)			inhibition of ristocetin-induced aggregation (extent, in words) ([1]; formalin-fixed platelets): virtually without inhibitory activity
RHVAWWKQGV [SEQ ID NO:106]			inhibition of ristocetin-induced aggregation (extent, in words) ([1]; formalin-fixed platelets): unable to exert more than slight inhibition, except at the highest concentrations tested
B1	52		
B2	1		
B3	1		
B4	1		
B5	1		
B6	2		
B7	22		
B8	1		
B9	1		
B10	1		
B11	1		
B12	1		
B13	1		
B14	1		
B15	1		
B16	14		
B17	7		
B18	2		

Molecule	Frequency [4]	binding result [5]	further results
B19	1		
B20	1		
B21	2		
B22	1		
B23		binds	
B24		binds	
B25		binds	
B26		binds	
B27		binds	
B28		binds	
B29		binds	
B30		binds	
B31		binds	
B32		binds	
B33		binds	
B34		binds	
B35		binds	
B36		binds	
B37		binds	
B38		binds	
B39		binds	
B40		binds	
B41		binds	
B42		binds	
B43		binds	
